Test results from paper PMC10786891, “Massively parallel profiling of RNA-targeting CRISPR-Cas13d”.
Numbering of substitutions follows the chain as printed. In names and notes the source's numbering stands.

T1: EsCas13d, nuclease-dead (Eubacterium siraeum, UniProt B0MS50, R295A;H300A;R849A;H854A)
T1 sequence: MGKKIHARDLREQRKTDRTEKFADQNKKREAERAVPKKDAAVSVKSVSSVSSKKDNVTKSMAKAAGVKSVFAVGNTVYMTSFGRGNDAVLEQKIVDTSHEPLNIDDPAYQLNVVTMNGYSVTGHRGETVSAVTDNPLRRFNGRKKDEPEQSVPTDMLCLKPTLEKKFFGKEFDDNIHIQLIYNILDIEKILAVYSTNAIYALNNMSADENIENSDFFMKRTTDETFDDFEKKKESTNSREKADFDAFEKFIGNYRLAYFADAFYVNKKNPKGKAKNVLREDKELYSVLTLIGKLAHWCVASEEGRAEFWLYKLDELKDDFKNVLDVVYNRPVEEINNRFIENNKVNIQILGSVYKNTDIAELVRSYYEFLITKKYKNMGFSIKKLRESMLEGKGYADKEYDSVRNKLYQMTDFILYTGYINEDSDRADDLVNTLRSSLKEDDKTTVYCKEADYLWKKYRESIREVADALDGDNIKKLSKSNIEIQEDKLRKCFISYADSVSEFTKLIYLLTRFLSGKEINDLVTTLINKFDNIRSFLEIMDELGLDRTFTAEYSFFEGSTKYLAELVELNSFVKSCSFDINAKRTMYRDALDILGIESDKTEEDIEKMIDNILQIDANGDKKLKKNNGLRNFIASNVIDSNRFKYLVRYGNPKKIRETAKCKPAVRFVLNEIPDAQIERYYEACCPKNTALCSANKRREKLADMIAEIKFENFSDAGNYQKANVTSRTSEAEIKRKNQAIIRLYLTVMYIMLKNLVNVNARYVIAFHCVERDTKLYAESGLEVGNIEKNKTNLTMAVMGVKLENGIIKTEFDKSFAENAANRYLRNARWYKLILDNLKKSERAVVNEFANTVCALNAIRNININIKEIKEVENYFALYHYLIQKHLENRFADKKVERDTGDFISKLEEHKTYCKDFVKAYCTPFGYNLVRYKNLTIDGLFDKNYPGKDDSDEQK

B1: target 1 G17A,C22U (mixed)
RNA 1: CACCCGUGCAAAAAUGCAGGGGUCUAAAACUGAGCGGAUAACCUCUCUAUGG
RNA 2: GGGAAUGGAUCCACAUCUACGAAUUCGUAUCAUAAAGAGGUUAUCCGCUCACCGAGAUCGGAAGAGCACACGU
B2: target 1 C2A,G12A (mixed)
RNA 1: B1 RNA 1
RNA 2: B1 RNA 2 with U30C, A35G, G40A, C50A
B3: target 1 insA 3' of 22,insU 3' of 21 (mixed)
RNA 1: B1 RNA 1
RNA 2: GGGAAUGGAUCCACAUCUACGAAUUCGUACACUAUAGAGAGGUUAUCCGCUCACCGAGAUCGGAAGAGCACACGU
B4: target 1 insA 3' of 5,insU 3' of 5 (mixed)
RNA 1: B1 RNA 1
RNA 2: GGGAAUGGAUCCACAUCUACGAAUUCGUACCAUAGAGAGGUUAUCCGAUCUCACCGAGAUCGGAAGAGCACACGU
B5: target 1 G12C,C22A (mixed)
RNA 1: B1 RNA 1
RNA 2: B1 RNA 2 with U30A, A35G, G40C
B6: target 1 insU 3' of 4,insA 3' of 4 (mixed)
RNA 1: B1 RNA 1
RNA 2: B4 RNA 2 with A48C, C50A
B7: target 1 insU 3' of 22,insG 3' of 7 (mixed)
RNA 1: B1 RNA 1
RNA 2: GGGAAUGGAUCCACAUCUACGAAUUCGUACUCAUAGAGAGGUUAUCGCGCUCACCGAGAUCGGAAGAGCACACGU
B8: target 1 C6G,U8G (mixed)
RNA 1: B1 RNA 1
RNA 2: B1 RNA 2 with U30C, A35G, U44G, C46G
B9: target 1 insG 3' of 14,insA 3' of 8 (mixed)
RNA 1: B1 RNA 1
RNA 2: B3 RNA 2 with A31C, C32A, U35G, A40G, G42U, U44A, A45U, U46A
B10: target 1 insC 3' of 17,insG 3' of 7 (mixed)
RNA 1: B1 RNA 1
RNA 2: B7 RNA 2 with U31C, C32A, A33U, U34A, A35G, G36C
B11: target 1 insC 3' of 19,insG 3' of 14 (mixed)
RNA 1: B1 RNA 1
RNA 2: B3 RNA 2 with A31C, C32A, A34C, U35A, A36G, G37A, A38G, G39A, A40G
B12: target 1 C2U,A20U (mixed)
RNA 1: B1 RNA 1
RNA 2: B1 RNA 2 with U30C, A32U, A35G, C50U
B13: target 1 insA 3' of 6,insA 3' of 3 (mixed)
RNA 1: B1 RNA 1
RNA 2: B4 RNA 2 with G47A, A48G, U49C, C50U, U51A
B14: target 1 U3C,C7A (mixed)
RNA 1: B1 RNA 1
RNA 2: B1 RNA 2 with U30C, A35G, C45A, U49C
B15: target 1 insG 3' of 22,insA 3' of 4 (mixed)
RNA 1: B1 RNA 1
RNA 2: B7 RNA 2 with U31G, G47C, C48G, G49C, C50A
B16: target 1 C6G,G17U (mixed)
RNA 1: B1 RNA 1
RNA 2: B1 RNA 2 with U30C, A35U, C46G

Molecular target: T1, EsCas13d, nuclease-dead
Assay: crRNA (strand 1, pre-loaded); Mg2+; 40 mM Tris-HCl pH 7.5, 150 mM NaCl, 6 mM MgCl2, 1 mM DTT, 0.1% Tween-20, 0.2 mg/ml BSA; 25 C; 10 min per concentration, then washed
Settings: tags: His6-TwinStrep-SUMO cleaved; N-terminal SNAP kept (SNAP-Surface 488); label: 3' end held by stalled T7 RNA polymerase

| Binder | Kd [nM] |
| --- | --- |
| B1 | 59 ± 11 |
| B2 | 4.57 ± 0.22 |
| B3 | 6.09 ± 0.28 |
| B4 | 6.6 ± 0.6 |
| B5 | 25 ± 1.1 |
| B6 | 9.1 ± 0.5 |
| B7 | 22.8 ± 1.6 |
| B8 | 12.8 ± 0.6 |
| B9 | 10.6 ± 0.4 |
| B10 | 42 ± 7 |
| B11 | 72 ± 11 |
| B12 | 34 ± 4 |
| B13 | 21.5 ± 2.2 |
| B14 | 8 ± 0.4 |
| B15 | 17.9 ± 2.6 |
| B16 | 31.4 ± 2.7 |
